# From patent publication US20100135997A1 (MEDGENE, published 2010)
# Residue numbers refer to the chain shown, from its start.
# B1: SEQ ID NO 11 (receptor)
# chain: MAGHLPKPTLWAEPGSVITMDQPVTLRCQGGQETQEYRLYREKKTAPWITRIPQELVKKGQFPIPSITWEHAGRYRCYYGSDTSQWSASSDPLELVVTGVYIKPTLSAQPSPVVNSGGNVTLQCDSQVAFDGFILCKEGEDEHPQCLNSQPHARGSSRAIFSVGPVSPSRRWWYRCYAYVDWFPYEWSLPSDLLELDVDG
# notes: mutated soluble two domain ILT-2
# B2: SEQ ID NO 17 (receptor)
# chain: B1 chain with G3Q, F130Y, V180D, D181S, W182N, F183S
# notes: as for B1
# B3: SEQ ID NO 14 (receptor)
# chain: B1 chain with G3Q, A129D, V180D, D181S, W182N, F183S
# notes: as for B1
# B4: SEQ ID NO 22 (receptor)
# chain: B1 chain with V180G, D181R, F183L
# notes: as for B1
# B5: SEQ ID NO 18 (receptor)
# chain: B1 chain with V180M, D181S, F183A
# notes: as for B1
# B6: SEQ ID NO 12 (receptor)
# chain: B1 chain with D181S, W182Y, F183W
# notes: as for B1
# B7: SEQ ID NO 15 (receptor)
# chain: B1 chain with G3Q, A129S, V180D, D181S, W182N, F183S
# notes: as for B1
# B8: SEQ ID NO 30 (receptor)
# chain: B1 chain with M20Q, D21G, Q22S, V180P, D181I, F183T
# notes: as for B1
# B9: SEQ ID NO 45 (receptor)
# chain: B1 chain with V180M, D181S, W182N, F183S
# notes: as for B1
# B10: SEQ ID NO 13 (receptor)
# chain: B1 chain with V180P, D181A, F183T
# notes: as for B1
# B11: SEQ ID NO 40 (receptor)
# chain: B1 chain with M20Q, D21G, Q22S, V180M, D181S, F183S
# notes: as for B1
# B12: SEQ ID NO 21 (receptor)
# chain: B1 chain with V180P, D181W, W182F, F183T
# notes: as for B1
# B13: SEQ ID NO 34 (receptor)
# chain: B1 chain with M20Q, D21G, Q22S, V180M, D181N, F183A
# notes: as for B1
# B14: SEQ ID NO 44 (receptor)
# chain: B1 chain with V180P, D181A, W182Y, F183T
# notes: as for B1
# B15: SEQ ID NO 16 (receptor)
# chain: B1 chain with G3Q, A129T, V180D, D181S, W182N, F183S
# notes: as for B1
# B16: SEQ ID NO 38 (receptor)
# chain: B1 chain with M20Q, D21G, Q22S, V180M, D181S, F183A
# notes: as for B1
# B17: SEQ ID NO 36 (receptor)
# chain: B1 chain with M20Q, D21G, Q22S, V180P, D181A, F183T
# notes: as for B1
# B18: SEQ ID NO 32 (receptor)
# chain: B1 chain with M20Q, D21G, Q22S, D181A, F183A
# notes: as for B1
# B19: SEQ ID NO 43 (receptor)
# chain: B1 chain with V180M, D181S, W182Y, F183S
# notes: as for B1
# B20: SEQ ID NO 23 (receptor)
# chain: B1 chain with D181E, F183L
# notes: as for B1
# B21: SEQ ID NO 20 (receptor)
# chain: B1 chain with V180P, W182F, F183T
# notes: as for B1
# Biological target: T1, HLA-A*0201 loaded with the Carcinoembryonic antigen (CEA)-derived … peptide (biotin on the C-terminal biotinylation tag)
# T1 construct: Soluble, biotinylated, immobilised on a streptavidin chip
# Assay: Biacore SPR
# Procedure: SPR measures changes in refractive index expressed in response units (RU) near a sensor surface within a small flow cell, a principle that can be used to detect receptor ligand interactions and to analyse their affinity and kinetic parameters. The probe flow cells were prepared by immobilising the pMHC complexes in flow cells via biotin-tag binding. The assay was then performed by passing soluble ILT-like molecule over the surfaces of the different flow cells at a constant flow rate, measuring the SPR response in doing so.
Kd,koff,Binder
≤ 1000 nM,≤ 2 s⁻¹,B1
≤ 1000 nM,≤ 2 s⁻¹,B2
≤ 1000 nM,≤ 2 s⁻¹,B3
≤ 1000 nM,≤ 2 s⁻¹,B4
≤ 1000 nM,≤ 2 s⁻¹,B5
≤ 1000 nM,≤ 2 s⁻¹,B6
≤ 1000 nM,≤ 2 s⁻¹,B7
≤ 1000 nM,≤ 2 s⁻¹,B8
≤ 1000 nM,≤ 2 s⁻¹,B9
≤ 1000 nM,≤ 2 s⁻¹,B10
≤ 1000 nM,≤ 2 s⁻¹,B11
≤ 1000 nM,≤ 2 s⁻¹,B12
≤ 1000 nM,≤ 2 s⁻¹,B13
≤ 1000 nM,≤ 2 s⁻¹,B14
≤ 1000 nM,≤ 2 s⁻¹,B15
≤ 1000 nM,≤ 2 s⁻¹,B16
≤ 1000 nM,≤ 2 s⁻¹,B17
≤ 1000 nM,≤ 2 s⁻¹,B18
≤ 1000 nM,≤ 2 s⁻¹,B19
≤ 1000 nM,≤ 2 s⁻¹,B20
≤ 1000 nM,≤ 2 s⁻¹,B21
